# T1: rPfTPx-1 (thioredoxin peroxidase 1) (Plasmodium falciparum, UniProt Q8IL80 1-195)
# T1 sequence: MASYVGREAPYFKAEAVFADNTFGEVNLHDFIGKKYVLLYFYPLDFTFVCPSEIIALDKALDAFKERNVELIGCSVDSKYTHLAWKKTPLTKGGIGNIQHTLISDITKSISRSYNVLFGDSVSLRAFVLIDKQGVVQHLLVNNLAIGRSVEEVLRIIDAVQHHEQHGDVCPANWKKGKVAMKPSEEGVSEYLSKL
# Target: T1, rPfTPx-1 (thioredoxin peroxidase 1)
# Assay: EMSA
binder,measurement,value
"AUCACAUACAUAUACACAAACACUUAUACAUACACAUA (ssRNA) [IntPE (PE) RNA probe, fluorescent]",binding result,binds

# From publication PMC9388093
